{"source": "paper PMC10991105", "proteins": {"B1": {"name": "Thermomyces lanuginosus lipase (TLLs) (Thermomyces lanuginosus) (protein)", "chain": "EVSQDLFNQFNLFAQYSAAAYCGKNNDAPAGTNITCTGNACPEVEKADATFLYSFEDSGVGDVTGFLALDNTNKLIVLSFRGSRSIENWIGNLNFDLKEINDICSGCRGHDGFTSSWRSVADTLRQKVEDAVREHPDYRVVFTGHSLGGALATVAGADLRGNGYDIDVFSYGAPRVGNRAFAEFLTVQTGGTLYRITHTNDIVPRLPPREFGYSHSSPEYWIKSGTLVPVTRNDIVKIEGIDATGGNNQPNIPDIPAHLWYFGLIGTCL", "notes": "commercial free lipase from Novozymes"}}, "substrate": "CCCCCCCCCCCCCCCC(=O)Oc1ccc([N+](=O)[O-])cc1", "experiment": "p-NPP hydrolysis, Lineweaver-Burk", "format": "biochemical, Thermomyces lanuginosus", "details": "free enzyme; p-NPP 0.05-0.5 mg/mL", "excerpt": "p-NPP hydrolysis, Lineweaver-Burk on Thermomyces lanuginosus lipase (TLLs)", "data": [{"protein": "B1", "values": [{"measurement": "Km", "value": 1396, "unit": "µM"}, {"measurement": "kcat", "value": 22800, "unit": "s⁻¹"}]}]}
